The results in this text go back to patent US20180362994, “TRANSCRIPTION FACTORS THAT REGULATE NICOTINE BIOSYNTHESIS IN TOBACCO” (NORTH CAROLINA STATE UNIVERSITY, published 2018).

The series concerns the target NtMYC2aΔN (C-terminal bHLH domain) (Nicotiana tabacum). The series can be described thus: EMSA; 10 mM Tris, 50 mM KCl, 1 mM DTT, poly(dI-dC), room temperature; 500x cold probe reduced the signal. The following applies: tags: GST fusion, cleaved with thrombin; label: 3' biotin. The procedure: EMSA was performed according to manual of the kit (LightShift,) Chemiluminescent EMSA Kit, Pierce). The binding buffer was 10 mM Tris, 50 mM KCl, 1 mM DTT, 0.05 μg/μl poly(di-dc), 0.05% NP-40, and 2.5% (v/v) glycerol. The probe was 20 fmol for each reaction. The cold probe and mutated probe were 10 pmol (500×) and the protein was 0.75 μg MYC2aΔN. The binding reaction was performed at room temperature for 20 min. The reaction mixture was separated on a 5% polyacrylamide gel and blotted on Hybond™-N⁺ membrane (Amersham, Piscataway, N.J., USA). UV crosslinker was used to crosslink the DNA to membrane. The membrane was probed and signal was detected according to the manual of kit (Chemiluminescent Nucleic Acid Detection Module Kit, Pierce). Kodak BioMax MS film (Carestream Health, Inc. Rochester, N.Y.) was exposed to record the signal.
Three G-boxes (G2, G3 and G4) were identified in the 0.6 kb NtQPT2 promoter (NCBI accession No. AJ748263), among which G2 box has the highest binding strength with NtMYC2b (Shoji and Hashimoto, 2011). To validate that NtMYC2a binds to G2-box. EMSA experiment was performed with probes of 38 bp consisting of a G2 box (CACGTT) and flanking regions from the NtQPT2 promoter and mutated probe with mutation in the G2 box sequence. We cloned the full length of NtMYC2a and expressed the recombinant protein (NtMYC2a fused with GST) in E. coli. […]
A general note: In EMSA bound probe runs differently from free probe, usually more slowly.

Sequence of NtMYC2aΔN (C-terminal bHLH domain) (Nicotiana tabacum) (chain, as listed by the source mutant): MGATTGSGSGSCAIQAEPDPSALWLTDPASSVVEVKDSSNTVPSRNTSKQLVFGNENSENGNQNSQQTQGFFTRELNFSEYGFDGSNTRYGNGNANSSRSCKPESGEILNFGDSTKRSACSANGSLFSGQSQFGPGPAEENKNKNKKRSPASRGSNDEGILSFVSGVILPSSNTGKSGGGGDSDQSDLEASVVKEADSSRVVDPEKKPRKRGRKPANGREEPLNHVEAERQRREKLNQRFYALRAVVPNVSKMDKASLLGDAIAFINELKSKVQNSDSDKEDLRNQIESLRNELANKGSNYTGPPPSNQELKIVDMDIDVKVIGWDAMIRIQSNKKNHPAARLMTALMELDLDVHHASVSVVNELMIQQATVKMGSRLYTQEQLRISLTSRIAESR

B1: G2-box probe of NtQPT2 promoter (dsDNA)
DNA 1: AGTAGCTGAACACGTTTTATTTATGGTTGTTGAATAGT
DNA 2: ACTATTCAACAACCATAAATAAAACGTGTTCAGCTACT
With B1, the binding result is “binds”.
